This is an account of results in US20130302313A1.

The target in the test is coxsackievirus-adenovirus receptor (CAR) (UniProt P78310). Briefly: cell-based or functional assay.
UniProt P78310, sequence (P78310 20-365 limits assumed): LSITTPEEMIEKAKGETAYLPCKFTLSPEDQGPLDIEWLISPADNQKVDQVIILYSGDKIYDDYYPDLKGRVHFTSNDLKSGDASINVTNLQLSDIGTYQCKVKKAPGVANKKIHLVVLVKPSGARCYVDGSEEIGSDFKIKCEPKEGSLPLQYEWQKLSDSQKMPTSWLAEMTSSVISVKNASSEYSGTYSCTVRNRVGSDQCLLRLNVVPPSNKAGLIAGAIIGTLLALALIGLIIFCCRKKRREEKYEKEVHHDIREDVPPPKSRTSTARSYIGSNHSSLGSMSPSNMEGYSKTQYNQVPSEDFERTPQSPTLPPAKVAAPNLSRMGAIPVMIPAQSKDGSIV

For “free soluble Ad5 fiber molecules (from UniProt P11818 1-581) (ligand)”, the GFP expression (transduction) of A549 cells by Ad5(GFP) at 500 evg/cell in the presence of soluble Ad5 fiber, relative to absence of soluble fiber (set to 100%) was 20% and the Transduction efficacy of A549 cells by Ad5PTD(GFP) at 500 evg/cell in the presence of soluble Ad5 fiber, relative to absence of soluble fiber (set to 100%) stood at 80%.
